Results from paper PMC5422739.
pKd: −log10 of the molar value.

Key:
[1] = biological target: HTE20N (the first 27 residues of HTE20, amino acids 358–384 of HTE) (human) (UniProt P15502); experiment: ELISA; HTE17-20, HTE20, HTE20N, HTE20C or BSA coated (1 μM/well); GST tagged LigB4 or LigB12 titrated 0 to 10 μM, 1 h at 37°C; HRP anti-GST; KD from a saturation fit of OD630
[2] = biological target: HTE17-20 (17th to 20th exon of human tropoelastin) (human); experiment: ELISA; HTE truncates, HTE20 mutants or BSA coated (1 μM/well, 0.1 M NaHCO3 pH 9.4), blocked with 3% BSA in PBS; 5 μM GST tagged LigB4 or LigB12 applied 1 h at 37°C; HRP anti-GST; fold over BSA or percent of wild-type HTE20
[3] = biological target: HTE18 (18th exon of human tropoelastin) (human); experiment: as above
[4] = biological target: HTE19-20 (19th to 20th exon of human tropoelastin) (human); experiment: as above
[5] = biological target: HTE20 (20th exon of human tropoelastin) (human) (UniProt P15502); experiment: as above
[6] = biological target: HTE20 mutant F378A (human) (UniProt P15502); experiment: as above
[7] = biological target: HTE20 mutant F381A (human) (UniProt P15502); experiment: as above
[8] = biological target: HTE20 mutant R360A (human) (UniProt P15502); experiment: as above
[9] = biological target: HTE20 mutant Y371A (human) (UniProt P15502); experiment: as above
[10] = biological target: HTE25-27 (25th to 27th exon of human tropoelastin) (human); experiment: as above
[11] = biological target: LigA on the surface of L. biflexa serovar Patoc ligA
[12] = biological target: tag free LigB12 (amino acids 1,047–1,119 in LigB) (L. interrogans serovar Pomona); experiment: SPR; Biacore 3000; tag free LigB12 immobilised on CM5 (about 1,000 RU); HTE truncates 0 to 5 μM injected in PBS at 30 μL/min, 25°C; 1:1 Langmuir model
[13] = biological target: LigB12-12-5 chimera (L. interrogans serovar Pomona); experiment: ELISA; tag-free LigB5/LigB12 and LigB7/LigB10 chimeras and wild-type domains coated (1 μM/well); 5 μM histidine tagged HTE17-20, HTE20 or HTE20N applied; anti-His detection
[14] = biological target: LigB12-5-12 chimera (L. interrogans serovar Pomona); experiment: as above
histidine tagged HTE20 = histidine tagged HTE20 (UniProt P15502); experiment: ELISA; conditions: 10 µM His-HTE20 applied to wells coated with LigB12 construct (1 µM/well); detected by anti-His antibodies; parent: est. 0.73; read off a plot
histidine tagged HTE20N = histidine tagged HTE20N (UniProt P15502); experiment: ELISA; conditions: 10 µM His-HTE20N applied to wells coated with LigB12 construct (1 µM/well); detected by anti-His antibodies; parent: est. 1.05; read off a plot
Chain of histidine tagged HTE20N (P15502 whole entry, looked up): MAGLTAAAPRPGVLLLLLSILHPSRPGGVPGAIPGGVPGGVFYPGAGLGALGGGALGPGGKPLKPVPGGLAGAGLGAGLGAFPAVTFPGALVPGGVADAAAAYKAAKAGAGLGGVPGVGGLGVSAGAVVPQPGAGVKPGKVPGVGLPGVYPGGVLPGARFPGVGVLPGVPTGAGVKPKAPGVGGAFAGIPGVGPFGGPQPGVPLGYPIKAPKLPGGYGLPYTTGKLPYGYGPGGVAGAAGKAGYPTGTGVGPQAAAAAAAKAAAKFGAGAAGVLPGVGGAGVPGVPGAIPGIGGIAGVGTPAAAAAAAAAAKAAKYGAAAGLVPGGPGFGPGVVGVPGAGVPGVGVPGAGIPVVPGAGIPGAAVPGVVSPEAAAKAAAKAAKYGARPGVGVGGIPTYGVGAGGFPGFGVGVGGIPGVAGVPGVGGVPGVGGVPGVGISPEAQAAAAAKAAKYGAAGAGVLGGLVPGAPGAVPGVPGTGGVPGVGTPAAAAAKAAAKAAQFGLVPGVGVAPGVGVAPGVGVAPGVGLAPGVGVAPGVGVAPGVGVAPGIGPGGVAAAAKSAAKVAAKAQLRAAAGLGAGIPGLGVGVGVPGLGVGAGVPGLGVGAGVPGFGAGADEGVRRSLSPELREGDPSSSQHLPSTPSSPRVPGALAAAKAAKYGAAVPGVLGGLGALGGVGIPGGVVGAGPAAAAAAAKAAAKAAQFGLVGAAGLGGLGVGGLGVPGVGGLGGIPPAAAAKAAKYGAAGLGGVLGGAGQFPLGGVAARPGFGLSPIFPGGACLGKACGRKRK

Chain of HTE17-20 (17th to 20th exon of human tropoelastin) (human) (P15502 297-438): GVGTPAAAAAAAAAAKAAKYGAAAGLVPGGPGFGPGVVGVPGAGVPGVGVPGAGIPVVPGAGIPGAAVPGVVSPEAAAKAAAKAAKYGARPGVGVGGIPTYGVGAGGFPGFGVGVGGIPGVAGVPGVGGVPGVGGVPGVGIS
Chain of HTE20 (20th exon of human tropoelastin) (human) (P15502 358-412): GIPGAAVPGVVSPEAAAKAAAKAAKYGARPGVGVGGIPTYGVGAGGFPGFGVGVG
Chain of HTE20N (the first 27 residues of HTE20, amino acids 358–384 of HTE) (human) (P15502 358-384): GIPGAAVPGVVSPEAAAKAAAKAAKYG
Chain of histidine tagged HTE20 (P15502 whole entry, looked up): as the sequence (P15502 whole entry, looked up) above

## GST tagged LigB4 (amino acids 307–403 in LigB) (domain or fragment)
[1]
  pKd: 6.07
[2]
  fold binding over BSA (negative control): 5.7 fold
[3]
  fold binding over BSA (negative control): 2 fold
[4]
  fold binding over BSA (negative control): 4.5 fold
[5]
  fold binding over BSA (negative control): 4.4 fold
[6]
  percent of wild-type HTE20 binding: 35%
[7]
  percent decrease of binding against wild-type HTE20: 54%
[8]
  percent of wild-type HTE20 binding: 32%
[9]
  percent decrease of binding against wild-type HTE20: 61%

## GST tagged LigB12 (amino acids 1,047–1,119 in LigB) (domain or fragment)
[1]
  pKd: 6.07
[2]
  fold binding over BSA (negative control): 5.7 fold
[3]
  fold binding over BSA (negative control): 2 fold
[4]
  fold binding over BSA (negative control): 4.5 fold
[5]
  fold binding over BSA (negative control): 4.4 fold
[6]
  percent decrease of binding against wild-type HTE20: 62%
[7]
  percent of wild-type HTE20 binding: 35%
[8]
  percent decrease of binding against wild-type HTE20: 54%
[9]
  percent of wild-type HTE20 binding: 35%
[10]
  fold binding over BSA (negative control): 3 fold

## HTE17-20 (17th to 20th exon of human tropoelastin) (domain or fragment)
[11]
  inhibition of the adhesion of LigA-expressing L. biflexa (Patoc ligA) to WI-38 cells after pre-incubation with HTE17-20, 10 to 0.156 μM; ELISA with hamster anti-L. biflexa sera: 61%

## HTE19-20 (19th to 20th exon of human tropoelastin) (domain or fragment)
[12]
  pKd: 5.87
  koff: 0.0043 s⁻¹
  kon: 3100 M⁻¹ s⁻¹

## histidine tagged HTE17-20 (domain or fragment)
[13]
  percent of wild-type LigB12 binding: 90%
[14]
  percent of wild-type LigB12 binding: 80%

## tag free LigB12 (amino acids 1,047–1,119 in LigB) A1065K
Histidine tagged HTE20
  response: 0.11 OD630
Histidine tagged HTE20N
  response: 0.09 OD630
